The source of these data is PMC8667049.

One series has as its target T1, GST-IRP2 (Homo sapiens, UniProt P48200 1-963).
T1 sequence: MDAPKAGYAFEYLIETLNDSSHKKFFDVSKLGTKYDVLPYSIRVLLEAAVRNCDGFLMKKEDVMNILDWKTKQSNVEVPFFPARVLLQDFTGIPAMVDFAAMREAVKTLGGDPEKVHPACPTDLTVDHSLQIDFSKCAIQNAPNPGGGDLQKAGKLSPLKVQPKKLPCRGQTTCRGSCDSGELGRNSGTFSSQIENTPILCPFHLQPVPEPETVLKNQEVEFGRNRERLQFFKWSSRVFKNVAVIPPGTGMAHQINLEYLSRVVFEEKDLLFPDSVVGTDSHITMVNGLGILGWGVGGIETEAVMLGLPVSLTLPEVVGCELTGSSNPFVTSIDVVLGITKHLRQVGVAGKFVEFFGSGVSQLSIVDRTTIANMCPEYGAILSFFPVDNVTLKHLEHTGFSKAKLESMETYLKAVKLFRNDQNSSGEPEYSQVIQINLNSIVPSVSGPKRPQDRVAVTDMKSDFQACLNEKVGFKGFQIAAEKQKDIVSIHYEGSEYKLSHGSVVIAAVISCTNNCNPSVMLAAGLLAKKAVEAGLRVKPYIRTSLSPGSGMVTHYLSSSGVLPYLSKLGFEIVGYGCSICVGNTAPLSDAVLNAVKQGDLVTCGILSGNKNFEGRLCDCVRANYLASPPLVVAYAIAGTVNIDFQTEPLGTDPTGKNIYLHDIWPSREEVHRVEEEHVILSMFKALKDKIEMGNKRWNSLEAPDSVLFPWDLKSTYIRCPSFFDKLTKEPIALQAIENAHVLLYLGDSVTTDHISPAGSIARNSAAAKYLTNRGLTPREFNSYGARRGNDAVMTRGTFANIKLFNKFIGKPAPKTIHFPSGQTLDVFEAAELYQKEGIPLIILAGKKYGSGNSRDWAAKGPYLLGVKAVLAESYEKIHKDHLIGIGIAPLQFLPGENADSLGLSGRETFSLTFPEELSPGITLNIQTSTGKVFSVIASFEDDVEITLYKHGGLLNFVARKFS
Kind of series: EMSA. (In general: A gel shift assay detects complexes by their altered migration in electrophoresis.)

Another series concerns the target T2, GST-IRP1 (Homo sapiens, UniProt P21399 1-889).
T2 sequence: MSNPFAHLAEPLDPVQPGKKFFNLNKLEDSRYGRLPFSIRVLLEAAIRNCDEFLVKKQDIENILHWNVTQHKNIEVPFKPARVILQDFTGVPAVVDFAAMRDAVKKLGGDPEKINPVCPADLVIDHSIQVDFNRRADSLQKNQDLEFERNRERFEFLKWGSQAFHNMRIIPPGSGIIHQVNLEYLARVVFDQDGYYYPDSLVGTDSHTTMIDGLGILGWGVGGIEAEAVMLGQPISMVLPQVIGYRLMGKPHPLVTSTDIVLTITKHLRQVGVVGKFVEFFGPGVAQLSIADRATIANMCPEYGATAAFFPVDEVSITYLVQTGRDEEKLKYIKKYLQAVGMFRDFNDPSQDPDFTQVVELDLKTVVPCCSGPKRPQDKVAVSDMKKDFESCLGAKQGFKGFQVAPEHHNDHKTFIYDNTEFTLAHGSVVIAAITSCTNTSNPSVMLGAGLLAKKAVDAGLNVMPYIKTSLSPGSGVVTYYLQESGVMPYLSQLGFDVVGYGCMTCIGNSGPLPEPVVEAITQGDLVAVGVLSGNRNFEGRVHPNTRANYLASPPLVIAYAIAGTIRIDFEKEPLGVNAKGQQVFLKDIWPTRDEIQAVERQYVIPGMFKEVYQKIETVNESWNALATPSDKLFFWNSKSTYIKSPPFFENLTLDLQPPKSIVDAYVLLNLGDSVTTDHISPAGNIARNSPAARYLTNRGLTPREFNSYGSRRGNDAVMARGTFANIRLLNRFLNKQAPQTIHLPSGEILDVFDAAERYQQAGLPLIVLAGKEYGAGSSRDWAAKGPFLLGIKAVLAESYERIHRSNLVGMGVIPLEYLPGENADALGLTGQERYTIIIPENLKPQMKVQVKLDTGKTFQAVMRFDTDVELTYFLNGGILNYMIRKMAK
Kind of series: EMSA.

Consider GAGGGGGCUUGCACAGAGUUGGAGCCAGAGG (structured_RNA) [CD63 5' UTR IRE], for which the binding result with GST-IRP2 and in the series with GST-IRP1 was “binds” each time.

For CCUGGUUUUUAAGGAGUGUCGCCAGAGUGCCGCGAAUGAAAAA (ssRNA) [non-IRE control RNA], the binding result in the series with GST-IRP2 and with GST-IRP1 was “no binding” throughout.
